This note sets out measurements from article PMC3839082.

Substrate in this data set: Nc1ncnc2c1ncn2[C@@H]1O[C@H](COP(=O)(O)OP(=O)(O)OP(=O)(O)O)[C@@H](O)[C@H]1O
Description: purified protein. Type of data set: biochemical, Homo sapiens. The following applies: Mg2+ ATP binding site.

Residue numbers refer to the chain shown, from its start. Names and notes keep the numbering of the source.

B1: hCINAP (Homo sapiens) (protein)
chain: MLLPNILLTGTPGVGKTTLGKELASKSGLKYINVGDLAREEQLYDGYDEEYDCPILDEDRVVDELDNQMREGGVIVDYHGCDFFPERWFHIVFVLRTDTNVLYERLETRGYNEKKLTDNIQCEIFQVLYEEATASYKEEIVHQLPSNKPEELENNVDQILKWIEQWIKDHNS
In the case of B1, the Km worked out at 45 ± 5 µM and the kcat/Km turned out to be 140 M⁻¹ s⁻¹.

B2: hCINAP-H79G (Homo sapiens; H79G) (protein)
chain: B1 chain with H79G
Regarding B2, the Km came to 93 ± 8 µM.
